From paper PMC2887854

Target: protective antigen (PA83, 83 kDa), monomeric (Bacillus anthracis)
Test: SPR

Sequence of protective antigen (PA83, 83 kDa), monomeric (Bacillus anthracis) (P13423 30-764 limits assumed): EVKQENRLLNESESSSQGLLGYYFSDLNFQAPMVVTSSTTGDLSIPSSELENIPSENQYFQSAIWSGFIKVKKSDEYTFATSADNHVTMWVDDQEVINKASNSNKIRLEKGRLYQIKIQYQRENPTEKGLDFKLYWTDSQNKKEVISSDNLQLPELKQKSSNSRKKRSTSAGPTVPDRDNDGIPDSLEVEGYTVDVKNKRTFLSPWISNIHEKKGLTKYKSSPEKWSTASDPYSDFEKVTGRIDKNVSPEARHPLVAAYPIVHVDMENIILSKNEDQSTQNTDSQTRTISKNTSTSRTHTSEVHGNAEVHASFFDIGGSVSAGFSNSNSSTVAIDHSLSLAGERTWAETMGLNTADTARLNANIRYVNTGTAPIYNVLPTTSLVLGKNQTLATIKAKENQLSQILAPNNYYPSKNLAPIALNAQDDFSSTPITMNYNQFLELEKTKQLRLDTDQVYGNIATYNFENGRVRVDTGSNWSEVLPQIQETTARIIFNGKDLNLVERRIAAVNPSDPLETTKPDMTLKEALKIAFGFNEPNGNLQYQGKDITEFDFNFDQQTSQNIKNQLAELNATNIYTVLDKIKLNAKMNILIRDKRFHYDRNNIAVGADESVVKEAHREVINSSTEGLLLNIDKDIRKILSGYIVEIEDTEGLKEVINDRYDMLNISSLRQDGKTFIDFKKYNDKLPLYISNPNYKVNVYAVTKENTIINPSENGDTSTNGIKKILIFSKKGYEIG

“CMG2-R40 vWA domain (residues 40-217) (from UniProt P58335 40-217) (domain or fragment)” was tested, and the Kd was 2.43 nM, the koff was 0.000105 s⁻¹ and the kon was 45300 M⁻¹ s⁻¹.
